What all share (assay): non-reducing SDS-PAGE with immunoblotting; ATF6α-TAP constructs of various lengths at the N-terminus in HCT116 DKO cells; lysates on non-reducing SDS-PAGE; blot with anti-Myc; shows disulfide-bonded forms
Experiment [1] addresses C467A mutant of ATF6α(Δ331)-TAP (human).
Experiment [2] has as its target C618A mutant of ATF6α(Δ355)-TAP (human).
For experiment [3], the target named is C467A mutant of ATF6α(Δ355)-TAP (human).
Experiment [4] deals with C467A mutant of ssATF6α(C)-TAP (human).
Experiment [5] deals with C618A mutant of ATF6α(Δ331)-TAP (human).
For experiment [6], the target named is C618A mutant of ssATF6α(C)-TAP (human).

Substance “C467A mutant of ATF6α(Δ331)-TAP (domain or fragment)” yielded a stoichiometry N in experiment [1] of 2.
Turning to “C618A mutant of ATF6α(Δ355)-TAP (domain or fragment)”, the stoichiometry N in experiment [2] was 2.
For the substance “C467A mutant of ATF6α(Δ355)-TAP (domain or fragment)”, the stoichiometry N in experiment [3] came to 2.
For “C467A mutant of ssATF6α(C)-TAP (domain or fragment)”, in experiment [4], the stoichiometry N was 2.
“C618A mutant of ATF6α(Δ331)-TAP (domain or fragment)” displayed a stoichiometry N in experiment [5] of 2.
In turn, “C618A mutant of ssATF6α(C)-TAP (domain or fragment)” registered a stoichiometry N in experiment [6] of 2.
